Measured values from publication PMC12184499, “Pathogenic variants in the polycystin pore helix cause distinct forms of channel dysfunction” (Proceedings of the National Academy of Sciences of the …, 2025).
Residue numbers refer to the chain shown, from its start. Names may count otherwise.

B1: PKD2 WT channel (hPKD2: 52-793) (domain or fragment, human, UniProt Q13563 52-793, looked up)
chain: LEIEMQRIRQAAARDPPAGAAASPSPPLSSCSRQAWSRDNPGFEAEEEEEEVEGEEGGMVVEMDVEWRPGSRRSAASSAVSSVGARSRGLGGYHGAGHPSGRRRRREDQGPPCPSPVGGGDPLHRHLPLEGQPPRVAWAERLVRGLRGLWGTRLMEESSTNREKYLKSVLRELVTYLLFLIVLCILTYGMMSSNVYYYTRMMSQLFLDTPVSKTEKTNFKTLSSMEDFWKFTEGSLLDGLYWKMQPSNQTEADNRSFIFYENLLLGVPRIRQLRVRNGSCSIPQDLRDEIKECYDVYSVSSEDRAPFGPRNGTAWIYTSEKDLNGSSHWGIIATYSGAGYYLDLSRTREETAAQVASLKKNVWLDRGTRATFIDFSVYNANINLFCVVRLLVEFPATGGVIPSWQFQPLKLIRYVTTFDFFLAACEIIFCFFIFYYVVEEILEIRIHKLHYFRSFWNCLDVVIVVLSVVAIGINIYRTSNVEVLLQFLEDQNTFPNFEHLAYWQIQFNNIAAVTVFFVWIKLFKFINFNRTMSQLSTTMSRCAKDLFGFAIMFFIIFLAYAQLAYLVFGTQVDDFSTFQECIFTQFRIILGDINFAEIEEANRVLGPIYFTTFVFFMFFILLNMFLAIINDTYSEVKSDLAQQKAEMELSDLIRKGYHKALVKLKLKKNTVDDISESLRQGGGKLNFDELRQDLKGKGHTDAEIEAIFTKYDQDGDQELTEHEHQQMRDDLEKEREDLDLDH
notes: PKD2 (polycystin-2), human, residues 52-793 (hPKD2: 52-793); Construct is Strep-MBP-TEV-PKD2; the Strep tag lies before MBP and the TEV site, so it probably left with MBP on TEV cleavage; The cryo-EM methods give 53-792 for the variants; also called polycystin; source: Expi293F GnTI-/- cells, transient transfection, purified (Strep-Tactin, amphipol A8-35, SEC); not shown: MBP, N-terminal, cleaved
B2: PKD2 F629S variant channel (hPKD2: 52-793) (domain or fragment, human, UniProt Q13563 52-793, looked up)
chain: B1 chain with F578S
notes: PKD2 (polycystin-2), human, residues 52-793, ADPKD germline missense variant F629S in pore helix 1; Construct is Strep-MBP-TEV-PKD2; the Strep tag probably left with MBP on TEV cleavage; The cryo-EM methods give 53-792; the model holds E214-Q694 without M295-A303; source: Expi293F GnTI-/- cells, transient transfection, purified (Strep-Tactin, amphipol A8-35, SEC); not shown: MBP, N-terminal, …
B3: PKD2 R638C variant channel (hPKD2: 52-793) (domain or fragment, human, UniProt Q13563 52-793, looked up)
chain: B1 chain with R587C
notes: PKD2 (polycystin-2), human, residues 52-793, ADPKD germline missense variant R638C in pore helix 1; Construct is Strep-MBP-TEV-PKD2; the Strep tag probably left with MBP on TEV cleavage; The cryo-EM methods give 53-792; the model holds E214-Q694 without M295-A303; source: Expi293F GnTI-/- cells, transient transfection, purified (Strep-Tactin, amphipol A8-35, SEC); not shown: MBP, N-terminal, …

Experiments:
[1] = biological target: the molecule itself; assay: SEC; Superdex 200 10/300 GL; PKD2 52-793 extracted with DDM and reconstituted in amphipol A8-35; Buffer B (25 mM pH 7.4, 150 mM NaCl, 1 mM TCEP, 1 mM CaCl2); oligomer and protomer peaks
[2] = biological target: the molecule itself; assay: cryo-EM structure; single-particle cryo-EM of variant channels in amphipol A8-35 (0.5 to 1.0 mg/mL), refined with C4 symmetry

Row | Protein | binding result [1] | stoichiometry N [2]
1 | B1 | binds | 
2 | B2 |  | 4
3 | B3 |  | 4
